Data as given in IntAct's records for PubMed 22193721.

B1: Beta-adrenergic receptor kinase 1 (Bos taurus (Bovine)), P21146 (parent)
chain: MADLEAVLADVSYLMAMEKSKATPAARASKKILLPEPSIRSVMQKYLEDRGEVTFEKIFSQKLGYLLFRDFCLKHLEEAKPLVEFYEEIKKYEKLETEEERLVCSREIFDTYIMKELLACSHPFSKSAIEHVQGHLVKKQVPPDLFQPYIEEICQNLRGDVFQKFIESDKFTRFCQWKNVELNIHLTMNDFSVHRIIGRGGFGEVYGCRKADTGKMYAMKCLDKKRIKMKQGETLALNERIMLSLVSTGDCPFIVCMSYAFHTPDKLSFILDLMNGGDLHYHLSQHGVFSEADMRFYAAEIILGLEHMHNRFVVYRDLKPANILLDEHGHVRISDLGLACDFSKKKPHASVGTHGYMAPEVLQKGVAYDSSADWFSLGCMLFKLLRGHSPFRQHKTKDKHEIDRMTLTMAVELPDSFSPELRSLLEGLLQRDVNRRLGCLGRGAQEVKESPFFRSLDWQMVFLQKYPPPLIPPRGEVNAADAFDIGSFDEEDTKGIKLLDSDQELYRNFPLTISERWQQEVAETVFDTINAETDRLEARKKTKNKQLGHEEDYALGKDCIMHGYMSKMGNPFLTQWQRRYFYLFPNRLEWRGEGEAPQSLLTMEEIQSVEETQIKERKCLLLKIRGGKQFVLQCDSDPELVQWKKELRDAYREAQQLVQRVPKMKNKPRSPVVELSKVPLIQRGSANGL
partner: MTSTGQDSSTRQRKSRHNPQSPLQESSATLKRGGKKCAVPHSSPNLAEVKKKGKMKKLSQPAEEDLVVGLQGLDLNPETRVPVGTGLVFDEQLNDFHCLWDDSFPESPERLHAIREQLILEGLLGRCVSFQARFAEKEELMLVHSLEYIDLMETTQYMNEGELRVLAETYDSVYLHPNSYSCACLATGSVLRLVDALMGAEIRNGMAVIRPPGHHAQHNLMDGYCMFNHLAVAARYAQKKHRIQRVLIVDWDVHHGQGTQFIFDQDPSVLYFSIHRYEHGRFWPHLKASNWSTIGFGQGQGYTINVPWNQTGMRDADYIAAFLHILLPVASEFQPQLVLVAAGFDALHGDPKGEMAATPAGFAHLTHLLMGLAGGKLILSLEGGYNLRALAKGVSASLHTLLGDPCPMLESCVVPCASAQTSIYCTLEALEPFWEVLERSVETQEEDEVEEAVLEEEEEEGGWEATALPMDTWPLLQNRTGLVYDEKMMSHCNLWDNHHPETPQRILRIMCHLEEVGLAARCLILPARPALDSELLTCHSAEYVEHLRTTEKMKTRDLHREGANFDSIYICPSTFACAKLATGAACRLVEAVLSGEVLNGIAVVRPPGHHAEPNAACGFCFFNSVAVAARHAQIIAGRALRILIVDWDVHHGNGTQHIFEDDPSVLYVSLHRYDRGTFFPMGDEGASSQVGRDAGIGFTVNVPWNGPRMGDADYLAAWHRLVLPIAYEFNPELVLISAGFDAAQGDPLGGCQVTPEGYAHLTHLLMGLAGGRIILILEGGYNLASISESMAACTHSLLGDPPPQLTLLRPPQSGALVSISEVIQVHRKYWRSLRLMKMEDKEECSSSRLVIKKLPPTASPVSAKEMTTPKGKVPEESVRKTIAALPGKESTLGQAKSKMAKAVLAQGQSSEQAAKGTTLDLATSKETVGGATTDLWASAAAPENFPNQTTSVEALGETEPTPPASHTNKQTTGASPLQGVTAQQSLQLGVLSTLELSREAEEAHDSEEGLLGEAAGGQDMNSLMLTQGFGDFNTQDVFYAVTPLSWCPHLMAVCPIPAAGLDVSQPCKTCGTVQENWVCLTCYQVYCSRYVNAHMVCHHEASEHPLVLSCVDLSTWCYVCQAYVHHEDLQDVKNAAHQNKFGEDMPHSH
B2: Beta-adrenergic receptor kinase 1 (Bos taurus (Bovine)), P21146 (parent)
chain: B1 chain

Variants of: B1
Conditions: with hdac6_mouse Hdac6, Q9Z2V5

Row | Variant | effect of a mutation on the interaction
1 | K220R | increasing interaction

Variants of: B2
Conditions: with hdac6_human HDAC6, Q9UBN7
hdac6_human HDAC6, Q9UBN7, sequence (Q9UBN7 whole entry): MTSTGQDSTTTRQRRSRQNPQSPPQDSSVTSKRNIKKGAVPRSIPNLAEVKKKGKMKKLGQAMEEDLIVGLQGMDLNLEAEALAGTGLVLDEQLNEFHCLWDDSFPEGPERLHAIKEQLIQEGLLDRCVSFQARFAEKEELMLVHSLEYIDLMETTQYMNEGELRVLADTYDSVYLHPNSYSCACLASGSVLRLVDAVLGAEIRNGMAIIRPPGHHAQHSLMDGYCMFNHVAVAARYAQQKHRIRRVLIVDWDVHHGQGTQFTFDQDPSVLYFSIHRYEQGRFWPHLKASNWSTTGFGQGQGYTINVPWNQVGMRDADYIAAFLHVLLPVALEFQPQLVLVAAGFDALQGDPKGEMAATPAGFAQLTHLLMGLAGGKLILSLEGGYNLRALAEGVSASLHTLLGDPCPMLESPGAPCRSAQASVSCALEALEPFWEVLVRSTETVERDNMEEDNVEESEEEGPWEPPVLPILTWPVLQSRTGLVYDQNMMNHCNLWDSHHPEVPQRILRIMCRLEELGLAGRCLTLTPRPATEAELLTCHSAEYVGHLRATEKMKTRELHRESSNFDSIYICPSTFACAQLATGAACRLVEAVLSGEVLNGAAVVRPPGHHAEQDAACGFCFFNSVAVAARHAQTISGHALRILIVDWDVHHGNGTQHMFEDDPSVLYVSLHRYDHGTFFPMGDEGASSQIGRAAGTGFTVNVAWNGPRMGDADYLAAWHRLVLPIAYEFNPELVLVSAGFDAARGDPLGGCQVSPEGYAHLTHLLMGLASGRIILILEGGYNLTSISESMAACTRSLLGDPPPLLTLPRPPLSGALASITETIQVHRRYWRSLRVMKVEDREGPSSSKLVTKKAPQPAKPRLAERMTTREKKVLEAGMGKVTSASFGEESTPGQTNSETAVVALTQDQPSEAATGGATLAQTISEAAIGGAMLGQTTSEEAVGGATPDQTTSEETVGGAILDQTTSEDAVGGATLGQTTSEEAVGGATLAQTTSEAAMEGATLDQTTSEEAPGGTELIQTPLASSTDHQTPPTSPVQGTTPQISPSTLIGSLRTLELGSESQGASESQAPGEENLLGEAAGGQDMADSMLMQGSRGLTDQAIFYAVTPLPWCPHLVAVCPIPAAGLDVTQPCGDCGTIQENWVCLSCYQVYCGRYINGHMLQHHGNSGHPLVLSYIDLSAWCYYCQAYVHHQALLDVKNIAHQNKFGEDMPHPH

Row | Variant | effect of a mutation on the interaction
2 | K220R | disrupting interaction

Variants of: B2
Conditions: with hdac6_human HDAC6, Q9UBN7
Remark: another data set of the same source

Row | Variant | effect of a mutation on the interaction
3 | S670A | decreasing interaction
